Source: the domain aggregation screens of Martell et al. (2025)

test: soluble fraction after stress (log2 fold change); higher = more stays soluble; pooled small domains, quantitative proteomics; details: stress: 50 degC
In short: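 Custom libraries of small protein domains were pooled and measured in a high-throughput format, with quantitative proteomics as the read-out. Each library was stressed at 50°C. The value is the log2 fold change in the amount of each protein that stays soluble after stress, used as a measure of aggregation propensity; higher values mean more of the protein stays soluble.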

Sequence	soluble fraction (log2)
HMLVGRDPQALILGSMPSEKSLEEDEYYAHPRNRFWSLMNWLLAGNKTRPAYKTGIEILSSHGIALWV	-0.263
HMLPVFNYQVYRTHGLIYVYAKDNDSFDQIARSMGFKAKQLMKFNEVPEDFPLQAGDIVYLEKKKK	-1.42
HMPRTEILMVDEEMEGERLDAFVAEQLDELSRSLVKTLIENGEIRVDGKQQKPSYRLKAGEEIIVEIPA	0.208
HMIGVQEFAMTYALTRRETEITQLIIQGKSNAMIAGELFISETTVKKHVSNIFEKTGVSRREELMVRVQAE	-1.44
HMRDQARQFFIDTWAKFQRHDALTPLEEKTAAIIALHPEYHRVLQNPESFITTDWRPESGDINPFMHL	-1.34
HMLQKVELSDNEKFIFDSLQKEQKMALLRLKELVNLSNKAWDVSVKNLTKQGLVKVTKIDEELLIEI	-0.949
HMGKEIEAPDFKNMTLKEAKIAAKEYKIRIKKGDEVVSEEVEKGRIVSQDPDAGTTIKTGSTVTVNISKGL	0.126
HMAPQQARAAKTRVKLLDAAATVVRRDGIQAMTLARVAEEAGVSKGGLLHHFGSKEELVTGMLEQ	-0.152
HMVEFLMESTNGMYGIVKEGSSYYVQKGINESSLDYIGGMFMKDKNRFSSYSTALKRLELISGQET	-0.328
HMPAWKINQELQATVIATKANQTRLRIEGQTFETQTAIALKPGQSLLIKVVSLEPQISFALI	-1.45
HMLTAHEAILKELRKMLLTGVLSPGEAVRPEIIGESFGVSAVPVREALRILEGEGQVLNRPHKGYVVT	-0.568
HMSGQLTEEQVKQIVTTAVKNSSGSTLTAAEVSRIVSTAVANNLTADQVKTVVNNALAGITTDISTLKA	0.0898
HMDDPITVAYRETEDAIAQVQREGFPVEMPPANSYIRRIQHELAGRFNLDSESYGDEPERRVRIRPQQ	-0.00875
HMGPAYQTQRQEAFAALSEIAAKNPQLMQVAGDLVFRAADFPMADELADRLAKTLPPQLQDKKGQP	-0.464
HMNSTEQQTERFLATLTSLGGNAGNQRLQEALGWQGSTYQRIKQHLLDEGRIRTGRGRGGSVALSEATAT	0.143
HMDERLLRLYERELQFLREGADEFAQAYPKVAGHLGLNSQSMGDPFIERLLEGLGFLTARIQLQLESEF	-0.0252
HMKDITPASEDQLKAITDLMLKVNGEWSDAFFTFISKKFNHQISSPEQLTTFEANTIIDMLRKKAEG	0.192
HMTTETGTVKWFNEGKGFGFIAPDGGGKDLFAHFKEIQGSGFKTLTENQRVQFEVTQGQKGPQASNIRTL	0.243
HMNSNQESFENWLSANSWYNKDRAMRVFADSLGQELRNSGVSFEKALTQISAEVRKEFSHKFQ	-0.163

Sequence	soluble fraction (log2)
HMFPELNAEETQVVQLLQKQTEGMQVNSLVVESNIPITRMSGILFELELKGIIRNYAGGVYKL	-2.16
HMTFENMFIENSGETLDREFLVENLRGISWQSYDRSVDVLVSRLRGKLGETPNNTRFIKTIHGVGYKFIGE	-0.316
HMSKTEEIAYTTFVKYLENKDIEEVYLGNNAKIKVILKDGREMITDNPRTADFKKDLLLHDIKVVEKT	0.219
HMTETELYDEVNRLIGLHLSERDRMILIMRDRDEFEIDAIAARTGLSEGNIRLILSRARRTVREAYRNNI	-3.74
HMGPYGAGSAAPAEDGSGPEGWTVKGNAKSMLYHTEGSPYYGRTNADVWFRDEESAEAAGFRRWDRK	0.0581
HMDWVAYGAELRRRRLLAGWSVAELSRRTNLSTSIIYQVEQARTRLRPSQLTLAKLAAALGMP	-3.15
HMRNMTDYLTIVRAVYGGLSQRQAATTYHVSRNTVSLLIRHAKNQGWLTVEDLSRADAAAFSPA	-0.517
HMINITALVKQLGGVDISKFNSAFKLLQQGKPLNTISNKVMADTFVALMKNSDEALNTKFRAAFKKI	-0.272
HMAVQAESDIIKRAALLRNLGNTSMQLKNIDQAIDFYKQGIKLHPEDAELKYNLSQALRQKSQSNN	0.0399
HMQEAATSLNAKILAKLRENNGTLAVSDKSDPALISSLFGVSKGNFKKAIGALYKNGQIVIHADRIEL	-0.436
HMNVAELIEGHEAEIAEVLKEFSLLYLMRLADELGEMTKSSSGNGPFQVLKGLVYEEIARRG	-1.09
HMNGPTPEEKLAVVNAEFVRQYGDEYEELELEGEELEEYYQKALNKEDFEYDIPHLPGWDEP	0.0217
HMSYYKEMIRLADSIADKAHEGQTDRNGWPYISHPRRVALGARKLVSEMASSTSPDTSLEELKAEVQIVAL	-0.288
HMTIPRLPFAFAKRFGIVLDNRPSGFVAAHKEGLLPHVLLEVQRFLGDAYTLEVVSDDDFERILGQVYQT	-3.27
HMESENANVNRAMLTGIASMHAGQLETALNKFNEVIQLAPDFAEGWNKRATIFYLMKKFDRSVNDIAQTLK	-0.0738
HMDSALKDDLNAFVKKLDVESQTLFMRRYFLGESVSSLASRFEMSEDNVGVKLFRIRAKLKKYLTGKGYD	-2.28
HMRVDDITDTILNVLKEQGGFISVTDKSSPETINKLFGVSKKTYKKAIGAIYRKKLIIIEDDGIRLNS	-1.84
HMAFDDAHYKDMITSYLKKFKKGNRSEIENLIIPKLSEVLVEKQKKDKVKNLLQALRKDNQIRLKGKYWYL	0.135
